The record followed here is US20050053913A1 (Johns Hopkins, published 2005).

The assay addresses T1, GAL4-DB (amino acids 1-147) expressed alone (yeast, UniProt P04386 1-147).
T1 construct: range 1-147; Negative control, not fused to another polypeptide; also called pPC97
Put plainly: yeast reporter SPAL5:URA3, growth on Sc-ura and 5-FOA.

T1 sequence (P04386 1-147 limits assumed): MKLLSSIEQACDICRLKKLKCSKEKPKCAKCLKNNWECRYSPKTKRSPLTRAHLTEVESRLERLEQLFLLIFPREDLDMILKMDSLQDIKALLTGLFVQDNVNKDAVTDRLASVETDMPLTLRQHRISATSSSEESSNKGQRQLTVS
Description: In this example, we employed the SPAL5:URA3 allele, which carries 5 GBSs.

B1: GAL4-AD (amino acids 768-881) expressed alone (other, yeast, UniProt P04386 768-881, looked up)
chain: ANFNQSGNIADSSLSFTFTNSSNGPNLITTQTNSQALSQPIASSNVHDNFMNNEITASKIDDGNNSKPLSPGWTDQTAYNAFGITTGMFNTTTMDDVYNYLFDDEDTPPNPKKE
notes: range 768-881; Negative control, not fused to another polypeptide; also called AD empty (pPC86); pPC86
On to B1, for which the binding result is “no binding”.
